Ends that are not written are not given here.
Columns and labels:
Type in all cases: cell-based
α2M*/csGRP78 interaction [1] = biological target: T1, α2M*/csGRP78 interaction (Homo sapiens, UniProt P01023); assay: Intracellular calcium assay (Fura-2AM) in 1LN cells treated with α2M*
T1 construct: host or cells: 1LN prostate cancer cells (endogenous csGRP78); α2M* added from outside
T1 sequence (P01023 24-1474): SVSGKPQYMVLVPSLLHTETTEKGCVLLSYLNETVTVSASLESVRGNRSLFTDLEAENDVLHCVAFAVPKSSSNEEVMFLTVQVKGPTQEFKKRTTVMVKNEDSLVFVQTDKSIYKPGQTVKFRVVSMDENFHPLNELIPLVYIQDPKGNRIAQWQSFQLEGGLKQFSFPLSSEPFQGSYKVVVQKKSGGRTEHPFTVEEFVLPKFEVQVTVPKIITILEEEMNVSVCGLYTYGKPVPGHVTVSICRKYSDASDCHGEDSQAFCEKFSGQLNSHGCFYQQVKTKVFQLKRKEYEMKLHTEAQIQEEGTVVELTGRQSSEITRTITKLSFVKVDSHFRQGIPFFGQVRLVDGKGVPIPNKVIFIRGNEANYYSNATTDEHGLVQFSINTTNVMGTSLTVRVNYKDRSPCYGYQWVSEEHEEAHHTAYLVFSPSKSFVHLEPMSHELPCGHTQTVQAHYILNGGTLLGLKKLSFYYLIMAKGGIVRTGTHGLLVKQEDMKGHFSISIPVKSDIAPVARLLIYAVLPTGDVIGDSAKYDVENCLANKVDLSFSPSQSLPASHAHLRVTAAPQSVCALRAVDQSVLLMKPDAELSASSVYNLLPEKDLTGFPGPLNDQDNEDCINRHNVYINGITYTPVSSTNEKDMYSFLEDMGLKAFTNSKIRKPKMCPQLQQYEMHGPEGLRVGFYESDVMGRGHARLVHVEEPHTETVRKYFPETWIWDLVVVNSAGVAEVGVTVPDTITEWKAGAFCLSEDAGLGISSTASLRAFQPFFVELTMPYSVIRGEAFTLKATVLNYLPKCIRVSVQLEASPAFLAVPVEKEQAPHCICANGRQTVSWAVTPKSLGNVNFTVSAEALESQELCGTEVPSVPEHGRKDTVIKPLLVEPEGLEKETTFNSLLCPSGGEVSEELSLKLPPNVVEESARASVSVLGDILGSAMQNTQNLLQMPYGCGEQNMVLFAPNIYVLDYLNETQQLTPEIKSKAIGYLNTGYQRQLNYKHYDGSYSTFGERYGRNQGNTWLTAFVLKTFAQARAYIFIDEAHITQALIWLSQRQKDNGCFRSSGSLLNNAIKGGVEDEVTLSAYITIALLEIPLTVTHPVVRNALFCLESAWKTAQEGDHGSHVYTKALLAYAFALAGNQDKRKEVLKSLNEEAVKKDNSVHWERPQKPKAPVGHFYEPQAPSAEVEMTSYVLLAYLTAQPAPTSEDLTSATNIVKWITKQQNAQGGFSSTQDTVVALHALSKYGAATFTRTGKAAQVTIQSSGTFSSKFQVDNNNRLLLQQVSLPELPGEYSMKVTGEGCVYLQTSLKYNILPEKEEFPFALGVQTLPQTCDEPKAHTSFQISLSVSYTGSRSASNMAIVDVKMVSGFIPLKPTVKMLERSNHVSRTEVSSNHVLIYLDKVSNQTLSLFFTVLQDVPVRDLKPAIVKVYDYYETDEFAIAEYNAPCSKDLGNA
Protocol: (§1) Cell Culture-Primary mesangial cells (MC) were obtained from male C57BL/6 mice by glomerular sieving and cultured in Dulbecco's modified Eagle's medium (Sigma) supplemented with 20% fetal bovine serum, streptomycin (100 μg/mL) and penicillin (100 μg/mL). 1LN prostate cancer cells, which express high levels of csGRP78 (as described in Hart et al., J Biol Chem. 2002; 277 (44): 42082-42087) were cultured in RPMI 1640 supplemented with 10% fetal bovine serum (ThermoFisher). Cells were grown at 37° C. in 95% 02 and 5% CO2. The immortalized human proximal tubular cell line HK2 (ATCC, Burlington, Canada) was cultured in 10% FBS in DMEM/F12 medium. Primary rat renal fibroblasts (Cell Biologics, Burlington, Canada) and cultured in 10% FBS in DMEM/F12 medium. MC were serum deprived in medium with 1% bovine serum albumin (BSA) and HK2 and RF cells were starved in 0.5% FBS 24 h before treatment with HG (30 mM), mannitol (24.4 mM) as osmotic control or methylamine-activated α2M (100 pM). The peptide sequence in GRP78 to which α2M* binds was used to block their interaction (CLIGRTWNDPSVQQDIKFL) (Leu^98-Leu^115 with an additional N-terminal cysteine) (Gopal et al., J Biol Chem. 2016; 291 (20): 10904-10915). […]
Intracellular Calcium Assay—1LN cells were plated in a 96 black walled clear bottom plate and allowed to grow to confluence over 2 days. After loading with the calcium indicator Fura-2AM (5 μM, Abcam) in HBSS for 45 minutes at 37° C. in the dark, baseline fluorescence readings were taken every minute for 5 minutes using a temperature-controlled fluorescent microplate reader (Gemini EM Spectra Max, Molecular Devices) set to 340 and 380 nm excitation and 510 nm emission. After treatment with methylamine-activated α2M (100 pM) with or without antibody (Fα2M or control IgG, 2 μg) and with or without peptide or scrambled peptide (100 nM), readings were taken every minute for 15 minutes. Intracellular calcium concentrations were determined by calculating the ratio of fluorescence signal (340/380 nm).

α2M*/csGRP78 interaction [2] = biological target: T2, α2M*/csGRP78 interaction (Mus musculus, UniProt Q6GQT1); assay: High glucose (HG)-induced profibrotic responses in primary mesangial cells (MC), immunoblotting; details: for HG-induced Akt activation (pAkt on S473) / HG-induced upregulation of fibronectin (FN), collagen (Col) IV and CTGF: MC, HG 48 h, peptides 100 nM; for HG-induced Akt activation (pAkt on S473): FIG. 4B; for HG-induced upregulation of fibronectin (FN), collagen (Col) IV and CTGF: FIG. 4C; for HG-induced profibrotic responses in MC: FIG. 11B, 11D
T2 construct: endogenous in cells; host or cells: primary mouse mesangial cells (C57BL/6)
T2 sequence (Q6GQT1 33-1474): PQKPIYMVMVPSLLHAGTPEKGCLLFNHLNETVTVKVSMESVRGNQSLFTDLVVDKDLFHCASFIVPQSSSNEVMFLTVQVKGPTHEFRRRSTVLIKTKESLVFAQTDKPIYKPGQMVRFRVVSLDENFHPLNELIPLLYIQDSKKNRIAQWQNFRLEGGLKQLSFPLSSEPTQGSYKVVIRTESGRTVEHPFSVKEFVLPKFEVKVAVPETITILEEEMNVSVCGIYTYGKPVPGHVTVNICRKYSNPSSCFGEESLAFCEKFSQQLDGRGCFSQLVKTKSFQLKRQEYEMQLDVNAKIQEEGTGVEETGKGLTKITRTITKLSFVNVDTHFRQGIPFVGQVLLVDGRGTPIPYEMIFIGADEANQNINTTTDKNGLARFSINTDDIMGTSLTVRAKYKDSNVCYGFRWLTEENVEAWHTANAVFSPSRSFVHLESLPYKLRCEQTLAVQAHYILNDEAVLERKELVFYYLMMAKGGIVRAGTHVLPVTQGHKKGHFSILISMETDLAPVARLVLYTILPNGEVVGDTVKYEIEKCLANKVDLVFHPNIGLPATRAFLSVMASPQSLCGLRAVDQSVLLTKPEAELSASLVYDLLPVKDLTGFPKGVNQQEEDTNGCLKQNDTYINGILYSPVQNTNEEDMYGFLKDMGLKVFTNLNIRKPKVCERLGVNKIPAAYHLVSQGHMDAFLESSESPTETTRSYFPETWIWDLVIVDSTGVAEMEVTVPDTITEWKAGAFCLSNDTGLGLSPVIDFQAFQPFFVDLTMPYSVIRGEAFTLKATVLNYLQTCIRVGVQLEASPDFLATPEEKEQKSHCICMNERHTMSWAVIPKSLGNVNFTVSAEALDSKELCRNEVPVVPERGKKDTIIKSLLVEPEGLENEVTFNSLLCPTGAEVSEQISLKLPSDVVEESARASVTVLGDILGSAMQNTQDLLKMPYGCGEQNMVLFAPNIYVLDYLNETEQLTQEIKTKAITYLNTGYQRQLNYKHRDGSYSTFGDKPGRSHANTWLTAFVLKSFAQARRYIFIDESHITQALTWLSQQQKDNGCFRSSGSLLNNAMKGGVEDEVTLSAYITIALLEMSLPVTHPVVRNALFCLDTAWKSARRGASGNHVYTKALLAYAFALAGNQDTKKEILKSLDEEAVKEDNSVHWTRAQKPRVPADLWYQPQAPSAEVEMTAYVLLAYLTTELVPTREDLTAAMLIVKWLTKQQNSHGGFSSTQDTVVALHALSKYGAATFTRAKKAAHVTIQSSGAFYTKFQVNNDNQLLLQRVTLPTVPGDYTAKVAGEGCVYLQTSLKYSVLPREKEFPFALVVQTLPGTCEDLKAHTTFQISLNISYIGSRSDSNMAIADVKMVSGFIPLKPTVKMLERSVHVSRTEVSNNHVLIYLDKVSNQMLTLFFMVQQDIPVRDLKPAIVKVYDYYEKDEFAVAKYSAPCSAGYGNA
Protocol: Cell Culture-Primary mesangial cells (MC) were obtained from male C57BL/6 mice by glomerular sieving and cultured in Dulbecco's modified Eagle's medium (Sigma) supplemented with 20% fetal bovine serum, streptomycin (100 μg/mL) and penicillin (100 μg/mL). 1LN prostate cancer cells, which express high levels of csGRP78 (as described in Hart et al., J Biol Chem. 2002; 277 (44): 42082-42087) were cultured in RPMI 1640 supplemented with 10% fetal bovine serum (ThermoFisher). Cells were grown at 37° C. in 95% 02 and 5% CO2. The immortalized human proximal tubular cell line HK2 (ATCC, Burlington, Canada) was cultured in 10% FBS in DMEM/F12 medium. Primary rat renal fibroblasts (Cell Biologics, Burlington, Canada) and cultured in 10% FBS in DMEM/F12 medium. MC were serum deprived in medium with 1% bovine serum albumin (BSA) and HK2 and RF cells were starved in 0.5% FBS 24 h before treatment with HG (30 mM), mannitol (24.4 mM) as osmotic control or methylamine-activated α2M (100 pM). The peptide sequence in GRP78 to which α2M* binds was used to block their interaction (CLIGRTWNDPSVQQDIKFL) (Leu^98-Leu^115 with an additional N-terminal cysteine) (Gopal et al., J Biol Chem. 2016; 291 (20): 10904-10915). The scrambled peptide, GTNKSQDLWIPQLRDVFI (SEQ ID NO: 4) was used as a control, with both peptides used at 100 nM (Cedarlane). Additional peptides were synthesized by Biomatik as follows: 1) peptide lacking the N-terminal cysteine, 2) peptide in which the cysteine was replaced by a methionine, 3) dimerized peptide via the cysteine (LFKIDQQVSPDNWTRGILC—S—S— CLIGRTWNDPSVQQDIKFL) (SEQ ID NO: 5) head to tail cyclization via an amide which leaves the cysteine intact.
Protein Extraction and Immunoblotting-Cells were lysed as described previously (Krepinsky et al. Nitric Oxide Inhibits Stretch-Induced MAPK Activation in Mesangial Cells Through RhoA Inactivation. Published online 2003. doi: 10.1097/01.ASN.00000940.85.04161.A7). Proteins were separated using SDS-PAGE followed by immunoblotting. Antibodies used were: α2M (1:1000, Bioss), mouse monoclonal F-α2M, which detects only conformationally changed α2M* as previously described (1:1000), pAkt S473 (1:1000, Cell Signaling), total Akt (1:1000, Cell Signaling),), pSmad3 Ser423/425 (1:4000, Novus), total Smad3 (1:1000, Abcam), phosphorylated focal adhesion kinase (pFAK) Tyr-397 (1:1000, Millipore, 07-012), FAK (1:1000, Santa Cruz Biotechnology, SC558), LRP1 (1:1000, Abcam), GRP78 (C20) (1:1000, Santa Cruz), platelet derived growth factor-β (PDGFR-β) (1:1000, Cedarlane), collagen IV (Col IV) (1:1000, Cell Signaling), fibronectin (FN) (1:1000, Abcam), connective tissue growth factor (CTGF) (1:1000, Santa Cruz), and tubulin (1:2000, Santa Cruz).

[3] = tested on: csGRP78 interaction with α2M*; assay: HG-induced profibrotic signaling and matrix production in human proximal tubular cell line HK2; details: proximal tubular cells; FIG. 8E
Protocol: as §1, with “10904-10915). The scrambled peptide, GTNKSQDLWIPQLRDVFI (SEQ ID NO: 4) was used as a control, with both peptides used at 100 nM (Cedarlane).” for “10904-10915).”

[4] = tested on: csGRP78 interaction with α2M*; assay: HG-induced profibrotic signaling and matrix production in primary rat renal fibroblasts; details: FIG. 8F
Protocol: as §1, with “10904-10915). The scrambled peptide, GTNKSQDLWIPQLRDVFI (SEQ ID NO: 4) was used as a control, with both peptides used at 100 nM (Cedarlane).” for “10904-10915).”

## CLIGRTWNDPSVQQDIKFL [Pep]
α2M*/csGRP78 interaction [1]; 1-LN cells, α2M* 100 pM, 15 min, peptides 100 nM, FIG. 4A
  release of intracellular calcium stores in response to α2M*: inhibited release of intracellular calcium stores
α2M*/csGRP78 interaction [2]
  HG-induced Akt activation (pAkt on S473): prevented HG-induced Akt activation
  HG-induced upregulation of fibronectin (FN), collagen (Col) IV and CTGF: prevented
[3]
  HG-induced Akt activation (Ser473) and ECM production: attenuated
[4]
  HG-induced Akt activation (Ser473) and ECM production: attenuated

## GTNKSQDLWIPQLRDVFI [Scr, scrambled control peptide, reference compound]
α2M*/csGRP78 interaction [2]
  HG-induced Akt activation (pAkt on S473): had no effect
  HG-induced upregulation of fibronectin (FN), collagen (Col) IV and CTGF: had no effect

## LFKIDQQVSPDNWTRGILC—S—S— CLIGRTWNDPSVQQDIKFL (also: homodimer via disulfide between the N-terminal cysteines of two copies) [Dimer Pep, dimerized peptide via the cysteine]
α2M*/csGRP78 interaction [1]; FIG. 11C
  calcium signaling in 1LN cells induced by α2M*: do not inhibit calcium signaling
α2M*/csGRP78 interaction [2]
  HG-induced profibrotic responses in MC: do not prevent HG-induced profibrotic responses

## LIGRTWNDPSVQQDIKFL [Pep woC, peptide without an N-terminal cysteine residue in Leu98-Leu115]
α2M*/csGRP78 interaction [1]; peptide tested at 100 pM and 100 nM, FIG. 11A
  calcium signaling in 1LN cells induced by α2M*: did not inhibit calcium signaling
α2M*/csGRP78 interaction [2]
  HG-induced profibrotic responses in MC: does not prevent HG-induced profibrotic responses

Reference: patent US20240424056A1, “Peptides for Anti Fibrotic Therapy” (McMaster University, priority 2021, published 2024)
